{"source": "patent US7575910B2", "about": "“Method for producing L-fuculose and method for producing L-fucose” (priority 2004, dated 2009)", "molecules": {"B1": {"name": "FcDH (Gluconobacter thailandicus NBRC 3257) (protein)", "chain": "MYMEKLRLDGRTAVVTGGAQNIGLACVTALAEAGARVVIADLDEAMAAQSAEELCAEGLDVRSIRMDVTSMENVQAAIKTLHEQEGHLDILVACAGICISEVKAEDMTEGQWLKQVDINLNGMFRCCQAVGRIMLEQKKGAIVAIGSMSGQIVNRPQQQAAYNASKAGVHQYIRSLAAEWAPYGIRANAVAPTYIETTLTRFGMEKPELYDAWIAGTPMGRVGQPDEVASVVHFLASDAASLMTGSIVNVDAGFTVW"}, "B2": {"name": "FcDH (L-fuculose-producing L-fucitol dehydrogenase) (Gluconobacter thailandicus NBRC 3257) (protein)", "chain": "B1 chain"}}, "key": {"[1]": {"target": "T1, FcDH (L-fuculose-producing L-fucitol dehydrogenase) (Gluconobacter thailandicus, UniProt A0ABQ0IZX0)", "T1 sequence (A0ABQ0IZX0 1-257)": "B1 chain", "assay": "Substrate specificity of purified FcDH (kcat, Km by Lineweaver-Burk plot)", "format": "biochemical, Gluconobacter oxydans IFO 3255", "details": "FIG. 12", "method": "(§1) The measurement was started when NAD was added. […] The measurement was performed consecutively three times.\n(§2) Values of kcat and Km for each substrate were obtained by measuring the initial rate of the reaction with various substrate concentrations and drawing a Lineweaver-Burk plot of the results.\n(§3) Lineweaver-Burk plots of the results in (A) and (B) are shown in FIG. 12 (C) and (D), respectively. The Km and kcat values were calculated from the range in which substrate inhibition was not observed, i.e., from a straight line represented by a broken line in FIG. 12 (C) and (D)."}, "[2]": {"target": "T2, FcDH (Gluconobacter thailandicus, UniProt A0ABQ0IZX0)", "assay": "Oxidation products of substrates by purified FcDH, HPLC", "format": "biochemical, Gluconobacter oxydans IFO 3255", "details": "0.5 g/dl substrate, NOX, catalase, 30° C., 16 hours", "method": "Among the substrates recognized by FcDH, the oxidation product of L-fucitol is L-fuculose, and the oxidation products of the other substrates were examined. The substrates used were D-arabitol, D-mannitol and D-sorbitol. A reaction solution containing 0.5 g/dl of the substrate, 50 mM Gly-NaOH (pH 9.5), 1 mM NAD, 30 mM FAD, 5 mM MgCl2, 0.6 U/ml purified FcDH, 0.2 U/ml NOX, and 0.1 mg/ml catalase was reacted at 30° C. for 16 hours, and analyzed by HPLC (FIG. 13)."}, "[3]": {"test_system": "NADH oxidase activity in cell free extract of G. oxydans IFO 3255 sldA:Kmr mutant strain", "assay": "NADH oxidation activity in acetobacterium cell-free extract", "format": "biochemical, Gluconobacter oxydans IFO 3255 sldA:Kmr", "details": "pH 8.0, 0.03 mM FAD", "description": "The group without the extract was used as a control."}, "[4]": {"target": "NOX (NADH oxidase) (Gluconobacter thailandicus, UniProt A0ABQ0IUG6)", "sequence (A0ABQ0IUG6 entry or part of it)": "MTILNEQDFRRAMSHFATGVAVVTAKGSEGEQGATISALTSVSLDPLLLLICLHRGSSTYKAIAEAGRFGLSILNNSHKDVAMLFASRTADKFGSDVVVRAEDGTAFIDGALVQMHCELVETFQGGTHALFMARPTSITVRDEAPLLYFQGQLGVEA", "assay": "NOX activity: NADH/NADPH and flavin coenzyme specificity", "format": "biochemical, Gluconobacter oxydans IFO 3255", "details": "flavin 0 to 300 μM, FIG. 19", "method": "The change in absorbance in the first minute was taken as an initial rate, and the activity was calculated therefrom. The experimental group without the enzyme source was used as a blank. […] The measurement was taken three consecutive times. Their mean value was taken and is shown in the figure with the standard deviation.\nThe concentration of flavin in the reaction solution was 0 to 300 μM, and the others were adjusted to standard conditions.\nThe Km value for the substrate was calculated by measuring the activity with a variety of substrate concentrations and drawing a Lineweaver-Burk plot of the results."}, "[5]": {"target": "T2, FcDH", "assay": "NAD and NADP specificity of FcDH", "format": "biochemical, Gluconobacter oxydans IFO 3255", "details": "data not shown", "method": "The measurement was started when NAD was added. The change in absorbance in the first minute was taken as the initial rate, and the activity was calculated therefrom. […] The measurement was performed consecutively three times. Their mean value was taken and is shown in the figure with the standard deviation.\nSince FcDH uses NAD as a coenzyme, the availability of NAD and NADP was measured. The activity was measured by adding NAD or NADP at various concentrations under standard conditions. The Km value for each coenzyme was calculated by drawing a Lineweaver-Burk plot of the results (FIG. 14 (B))."}, "[6]": {"substrate": "NC(=O)c1ccc[n+]([C@@H]2O[C@H](COP(=O)([O-])OP(=O)(O)OC[C@H]3O[C@@H](n4cnc5c(N)ncnc54)[C@H](O)[C@@H]3O)[C@@H](O)[C@H]2O)c1", "assay": "NAD and NADP specificity of FcDH", "format": "biochemical, Gluconobacter oxydans IFO 3255", "details": "other: FcDH, Lineweaver-Burk plot, FIG. 14; pH 9.5; 30.0 °C"}, "[7]": {"substrate": "OC[C@@H](O)[C@@H](O)[C@H](O)[C@@H](O)CO", "assay": "Substrate specificity of purified FcDH (kcat, Km by Lineweaver-Burk plot)", "format": "biochemical, Gluconobacter oxydans IFO 3255", "details": "other: purified FcDH, pH 9.5, 30.0 °C", "method": "as §1, §2, §3"}, "[8]": {"substrate": "OC[C@@H](O)[C@H](O)[C@H](O)[C@@H](O)CO", "assay": "Substrate specificity of purified FcDH (kcat, Km by Lineweaver-Burk plot)", "format": "biochemical, Gluconobacter oxydans IFO 3255", "details": "other: purified FcDH, pH 9.5, 30.0 °C", "method": "as §1, §2, §3"}, "[9]": {"substrate": "OC[C@@H](O)[C@@H](O)[C@H](O)[C@H](O)CO", "assay": "Substrate specificity of purified FcDH (kcat, Km by Lineweaver-Burk plot)", "format": "biochemical, Gluconobacter oxydans IFO 3255", "details": "other: purified FcDH, pH 9.5, 30.0 °C", "method": "as §1, §2, §3"}, "[10]": {"substrate": "OC[C@@H](O)[C@H](O)[C@@H](O)CO", "assay": "purified protein, by the assay type", "details": "other: purified FcDH, substrate; Lineweaver-Burk plot; pH 9.5; 30.0 °C"}, "[11]": {"substrate": "C[C@H](O)[C@@H](O)[C@@H](O)[C@H](O)CO", "assay": "purified protein, by the assay type", "details": "other: purified FcDH, substrate; Lineweaver-Burk plot; pH 9.5; 30.0 °C"}, "[12]": {"substrate": "OC[C@@H](O)[C@@H](O)[C@@H](O)CO", "assay": "purified protein, by the assay type", "details": "other: purified FcDH, substrate; Lineweaver-Burk plot; pH 9.5; 30.0 °C"}, "[13]": {"substrate": "OC[C@@H](O)C(O)[C@H](O)CO", "assay": "purified protein, by the assay type", "details": "other: purified FcDH, substrate; Lineweaver-Burk plot; pH 9.5; 30.0 °C"}}, "data": [{"molecule": "OC[C@@H](O)C(O)[C@H](O)CO", "note": "[D-ARABITOL, D-arabitol]", "values": [{"measurement": "substrate concentration at which a reduction of the specific activity (inhibition by the substrate) was observed", "setting": "[1]", "result": "≥ 5", "unit": "mM"}, {"measurement": "oxidation product identified by HPLC", "setting": "[2]", "result": "D-ribulose and D-xylulose"}]}, {"molecule": "OC[C@@H](O)[C@@H](O)[C@H](O)[C@H](O)CO", "note": "[D-MANNITOL, D-mannitol]", "values": [{"measurement": "oxidation product identified by HPLC", "setting": "[2]", "result": "D-fructose"}]}, {"molecule": "OC[C@@H](O)[C@@H](O)[C@H](O)[C@@H](O)CO", "note": "[D-SORBITOL, D-sorbitol]", "values": [{"measurement": "oxidation product identified by HPLC", "setting": "[2]", "result": "L-sorbose"}]}, {"molecule": "Cc1cc2nc3c(=O)[nH]c(=O)nc-3n(C[C@H](O)[C@H](O)[C@H](O)COP(=O)(O)OP(=O)(O)OC[C@H]3O[C@@H](n4cnc5c(N)ncnc54)[C@H](O)[C@@H]3O)c2cc1C", "note": "[FAD]", "values": [{"measurement": "effect of FAD addition on NADH oxidation activity", "setting": "[3]", "result": "facilitated this activity"}, {"measurement": "NOX activation effect of flavin coenzyme", "setting": "[4]", "result": "NOX activation effect was observed"}]}, {"molecule": "NC(=O)c1ccc[n+]([C@H]2O[C@@H](COP(=O)([O-])OP(=O)(O)OC[C@H]3O[C@@H](n4cnc5c(N)ncnc54)[C@H](OP(=O)(O)O)[C@@H]3O)[C@H](O)[C@@H]2O)c1", "note": "[NADP]", "values": [{"measurement": "FcDH activity with NADP as the coenzyme", "setting": "[5]", "result": "no significant activity"}]}, {"molecule": "B1", "values": [{"measurement": "Km", "setting": "[6]", "result": 0.20, "unit": "mM"}]}, {"molecule": "B2", "values": [{"measurement": "Km", "setting": "[7]", "result": 22.4, "unit": "mM"}, {"measurement": "Km", "setting": "[8]", "result": 30.5, "unit": "mM"}, {"measurement": "Km", "setting": "[9]", "result": 30.2, "unit": "mM"}, {"measurement": "Km", "setting": "[10]", "result": 31.9, "unit": "mM"}, {"measurement": "Km", "setting": "[11]", "result": 31.9, "unit": "mM"}, {"measurement": "Km", "setting": "[12]", "result": 20.4, "unit": "mM"}, {"measurement": "Km", "setting": "[13]", "result": 1.3, "unit": "mM"}]}]}
